Laboratory results: patent publication US10006080B2, “High-selectivity contact activation inhibitor based on infestin-4” (OBSCHESTVO S OGRANICHENNOY OTVETSTVENNOSTYU …, priority 2013, dated 2018)

T1: factor XIIa (UniProt P00748 20-615, limits assumed)
T1 construct: also called fXIIa
T1 sequence (looked up): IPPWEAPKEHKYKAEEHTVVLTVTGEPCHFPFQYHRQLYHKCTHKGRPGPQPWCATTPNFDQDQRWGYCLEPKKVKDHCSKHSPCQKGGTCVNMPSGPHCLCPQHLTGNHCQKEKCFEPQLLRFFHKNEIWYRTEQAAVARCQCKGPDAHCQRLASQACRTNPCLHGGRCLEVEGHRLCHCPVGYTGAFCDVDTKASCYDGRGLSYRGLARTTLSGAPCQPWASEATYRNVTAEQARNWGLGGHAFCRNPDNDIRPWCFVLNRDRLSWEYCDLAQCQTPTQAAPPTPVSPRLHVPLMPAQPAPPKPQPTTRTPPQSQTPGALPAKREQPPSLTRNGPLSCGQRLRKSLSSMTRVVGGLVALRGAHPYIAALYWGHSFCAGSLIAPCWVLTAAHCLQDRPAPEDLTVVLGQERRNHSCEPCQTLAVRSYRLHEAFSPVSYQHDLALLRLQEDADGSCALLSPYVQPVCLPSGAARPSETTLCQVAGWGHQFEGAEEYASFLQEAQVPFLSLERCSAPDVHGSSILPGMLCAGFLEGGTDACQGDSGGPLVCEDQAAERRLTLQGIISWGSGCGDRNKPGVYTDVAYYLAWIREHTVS


Experiments:
fXIIa = molecular target: T2, fXIIa (Homo sapiens, UniProt P00748); assay: Chromogenic test of protease inhibition in buffer, fXIIa (substrate S-2302); assay type: biochemical; details: versus fXIa, fXa, aPC; Table 2
T2 construct: it can be transformed into an active protease, factor XIIa (fXIIa)
Method: (§1) In order to assess selectivity of the fXIIa inhibition by the polypeptide comprising the sequence of the infestin-4 mutant MutB, its inhibitory activity in buffer solution against the purified coagulation factors was determined. The polypeptide's activity was compared with the known fXIIa inhibitors: CTI, infestin-4, infestin-4-based mutant Mut15, LCTI-III. […] The standard deviation amounted to about 50% of the average value; each value was measured by performing 2-3 repeats.
(§2) To determine the inhibition activity of such proteins as MutB, CTI, Inf4, Mut15, and LCTI-III as related to different coagulation proteases in a buffer, the chromogenic test was used: the mixture of protease and inhibitor was incubated in the wells of the plate for 15 minutes at 37° C., after which the chromogenic substrate solution was added to the mixture, and the protease activity was measured as the rate of chromogenic product formation at 37° C.
(§3) Chromogenic substrates included a p-nitroanilide group cleaved by the corresponding proteases. After cleavage of the p-nitroanilide group from the substrate molecule, the group absorption spectrum changes, and the change of concentration of such product within time can be detected at the light wavelength of 405 nm using a plate spectrophotometer. […]

fXa = fXa (Homo sapiens, UniProt P00742); assay: Chromogenic test of protease inhibition in buffer, fXa (substrate S-2765); assay type: biochemical; details: buffer solution, summary of Table 2
Sequence of fXa (P00742 235-488 limits assumed): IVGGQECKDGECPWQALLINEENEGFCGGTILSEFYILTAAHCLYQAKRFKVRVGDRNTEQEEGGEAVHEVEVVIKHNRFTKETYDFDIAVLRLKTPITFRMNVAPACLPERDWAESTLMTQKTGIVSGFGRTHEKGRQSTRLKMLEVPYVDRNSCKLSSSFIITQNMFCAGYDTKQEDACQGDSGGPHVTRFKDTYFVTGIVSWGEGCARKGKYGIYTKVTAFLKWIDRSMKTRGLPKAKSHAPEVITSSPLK
Sequence of fXa (P00742 41-179 partner limits assumed): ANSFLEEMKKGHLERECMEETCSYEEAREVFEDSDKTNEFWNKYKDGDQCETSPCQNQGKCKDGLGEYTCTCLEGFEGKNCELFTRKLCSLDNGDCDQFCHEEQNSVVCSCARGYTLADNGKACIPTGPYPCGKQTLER
Method: as §1, §2, §3

[1] = tested on: contact-activated coagulation; assay: APTT test in platelet free plasma of a healthy donor (kaolin-cephalin activation); assay type: biochemical, human; details: for concentration at which the APTT increases nearly four-fold / concentration leading to 2.5-fold increase of APTT: normal plasma
Method: The assessment of activity of the polypeptide comprising the sequence of an infestin-4 mutant MutB by its inhibition of the contact-activated coagulation shall be considered further with a reference to FIG. 1. Native infestin-4 and mutants MutB and Mut15 were added into 3 separate samples of platelet free plasma (PFP) of a healthy donor, with subsequent measuring time of contact-activated clotting in the APTT test.
Blood plasma from healthy donors was processed according to standard protocols of blood collection for coagulation assays (Collection, Transport, and Processing of Blood Specimens for Testing Plasma-Based Coagulation Assays and Molecular Hemostasis Assays; Approved Guideline Fifth Edition by Clinical and Laboratory Standards Institute (CLSI) H21-A5 Vol. 28 No. 5). 0.38% sodium citrate was added into blood to block the calcium ions.
The APTT test was administered using the reagent kits “Coagulo-test” (Scientific-production association Renam, Moscow, Russia) and different concentrations of the following contact activation inhibitors: native infestin-4, MutB, and Mut15. To do that, 50 microliters of blood plasma from a healthy donor were mixed with 5.6 microliters of a 10× solution of different inhibitor concentrations and incubated for 15 minutes at 37° C. Then, according to the “Coagulo-test” manual, 25 microliters of the mixture were transferred into the cuvette of the coagulometer Helena-C2, with addition of 25 microliters of kaolin-cephalin mixture activating fXII in blood plasma. After incubation at 37° C. for 3 minutes, 25 microliters of the calcium chloride solution in the initial concentration of 25 mM was added, and the time of fibrin clot formation in the coagulometer cuvette was determined photometrically.
APTT dependences on concentrations of native infestin-4, MutB and Mut15 obtained in the same way as in Example 1, are shown on FIG. 1.

aPC = aPC (Homo sapiens, UniProt P04070); assay: Chromogenic test of protease inhibition in buffer, aPC (substrate Spectrozyme pCa); assay type: biochemical; details: buffer solution, summary of Table 2
Sequence of aPC (P04070 212-450 limits assumed): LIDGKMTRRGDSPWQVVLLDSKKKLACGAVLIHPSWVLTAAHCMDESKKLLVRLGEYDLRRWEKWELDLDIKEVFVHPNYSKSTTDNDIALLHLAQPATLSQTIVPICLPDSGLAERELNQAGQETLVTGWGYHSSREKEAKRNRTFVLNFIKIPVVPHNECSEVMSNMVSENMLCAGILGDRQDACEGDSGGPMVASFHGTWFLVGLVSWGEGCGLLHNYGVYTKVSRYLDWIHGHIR
Sequence of aPC (P04070 43-197 partner limits assumed): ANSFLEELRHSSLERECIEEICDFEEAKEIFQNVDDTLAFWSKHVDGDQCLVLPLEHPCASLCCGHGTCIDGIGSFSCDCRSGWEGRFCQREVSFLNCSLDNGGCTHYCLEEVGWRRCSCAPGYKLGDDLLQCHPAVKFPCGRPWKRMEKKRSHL
Method: as §1, §2, §3

fibrinolysis = details: supposedly by inhibiting the tissue activator of plasminogen; cited from earlier work
factor XIIa = molecular target: T1, factor XIIa; assay: chromogenic test (S-2302), IC50 converted by Cheng-Prusoff
Method: as §2
(§4) Chromogenic substrates included a p-nitroanilide group cleaved by the corresponding proteases. After cleavage of the p-nitroanilide group from the substrate molecule, the group absorption spectrum changes, and the change of concentration of such product within time can be detected at the light wavelength of 405 nm using a plate spectrophotometer. To build a dependence curve of the protease activity from the inhibitor concentration, different inhibitor concentrations were added into several samples with the same protease concentration. After that, the inhibitor concentration able to decrease the protease activity by 50% (IC50) was determined. The inhibition constant Ki was calculated using the Cheng-Prusoff equation (Ki=IC50/(1+S/KM)), where S is the initial substrate concentration, KM is the Michaelis-Menten constant of the substrate to the protease.

factor XIa = molecular target: T3, factor XIa (UniProt P03951 19-625); assay: chromogenic test (S-2366), IC50 converted by Cheng-Prusoff
T3 construct: also called fXIa
Method: as §2, §4

activated protein C = molecular target: T4, activated protein C (UniProt P04070 43-197; P04070 212-461); assay: chromogenic test (Spectrozyme pCa), IC50 converted by Cheng-Prusoff
T4 construct: also called aPC
T4 sequence (P04070 43-197, form in doubt, chain 1 of 2): as the sequence (P04070 43-197 partner limits assumed) above
T4 sequence (P04070 212-461, form in doubt, chain 2 of 2): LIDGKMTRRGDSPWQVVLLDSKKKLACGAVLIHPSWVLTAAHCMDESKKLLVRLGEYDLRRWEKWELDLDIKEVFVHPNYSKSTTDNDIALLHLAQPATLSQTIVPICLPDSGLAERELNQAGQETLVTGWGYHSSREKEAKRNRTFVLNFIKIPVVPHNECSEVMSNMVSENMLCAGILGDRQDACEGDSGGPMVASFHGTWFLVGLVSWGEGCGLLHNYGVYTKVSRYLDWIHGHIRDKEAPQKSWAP
Method: as §2, §4

fXIIa inhibition selectivity among the said fXIIa inhibitors (fXIIa) | inhibition of fXa (in words) (fXa) | inhibition of aPC (in words) (aPC) | Ki (factor XIIa) [µM] | Ki (factor XIa) [µM] | Ki (activated protein C) [µM] | Molecule | APTT ([1]; 10 μM inhibitor in PFP, 45 sec without inhibitor) [s] | activity in blood plasma in comparison to Mut15 ([1]; APTT dose-dependence) | activity in blood plasma in comparison with Mut15 and native infestin-4 ([1]; APTT dose-dependence, FIG. 1) | concentration at which the APTT increases nearly four-fold [1] [µM] | concentration leading to 2.5-fold increase of APTT [1] [µM] | effect on fibrinolysis (fibrinolysis)
highest | do not inhibit | – | – | – | – | MutB: polypeptide comprising the sequence of infestin-4 mutant MutB (SEQ ID NO: 1), inhibition loop TRNFVA; high-selectivity fXIIa inhibitor (EVRNPCACTRNFVAVCGSDGKTYGNPCMLNCAAQTKVPGLKLVHEGRCQRSNVEQF; Infestin-4 mutant MutB) | 120 | nearly twofold | increased activity | 20 | 10 | –
– | – | inhibits | 0.001 | 15 | 20 | corn trypsin inhibitor (other, UniProt P01088 29-138, looked up, Isolated from corn; also called CTI) SAGTSCVPGWAIPHNPLPSCRWYVTSRTCGIGPRLPWPELKRRCCRELADIPAYCRCTALSILMDGAIPPGPDAQLEGRLEDLPGCPREVQRGFAATLVTEAECNLATIS | – | – | – | 15 | 5 | can delay fibrinolysis
